Data from the domain aggregation screens of Martell et al. (2025).

Assay: soluble fraction after stress (log2 fold change); higher = more stays soluble; pooled small domains, quantitative proteomics
Details: stress: 75 degC
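Also: 20 min heating vs room temperature control held 20 min.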

Sequence	soluble fraction (log2)
HMAAADLNMRAKLADLGGMSYGELSIWEKTHGMEFAAWEHEWEKLNSGTQADGLKFPKHLPEGFPT	0.185
HMAAAKDVMDWQNAIRGLTDAKGKPYSPTYLKTVHNQLSALFNHAVRYYGLQVNPAAKAGNMGVEE	-0.131
HMAADDGSARAEQLREMYSLISGLDKLDKAIILMWLDERSYDEIAEVTGFTRNNVATRLHRIKSRLARQSN	-1.66
HMAAEIGSGVVDAYDLRLRSQPSTDAETIIYLDNGAKLSVQEDLGDWYKVVSGTYTGYVSAEYVAYTPSPE	-0.806
HMAAELHPYGADSYRGDNPPAGYEIKAKEESKKFHTPSSPWYGRTIAEIWFRTEEAAEAAGFINAVK	-0.246
HMAAELQALSVRELEVLDQLAGGASNREIAQRLYISENTVRNHVHSILTKLKLQNRTQLVGMT	-0.981
HMAAESWTEKSRALAAAGLVVMGRDAQTKIEELTNLAPLIEAANASNTRLLTSQSIDELLSIVPTEENL	0.0818
HMAAGKGVTTGSVRLRKGSNTDSAIIATLKKDTELILYGKKDGWYSVKTSDGTEGFVSSKYVKVTEAY	0.61
HMAAGLTPKQKAFADNYIKNGGNAAEAARAAGYSLKNVGANAGKLLKNPKIAAYIAEKQAELDRRNGT	0.196
HMAAINPSALREPATPPEQLSAGDSVLHPRFGRGEILELQQQGGDPRAIVQFINEPKPRTLVLRYAQLRK	-0.138
HMAAKADAVKKAIAAIGKVDASEDSKAKVEAARKAYAALTEDQKKLVEASQLKLLTEAEAAYQQAVEESKK	-0.283
HMAAMSLGERIGAHRKRMGISQEELGHRMGVSRQAVSKWETGRAVPDMENLLALARLFGVPVSELAD	-0.129
HMAAPVGLTQRQMEVAALVADGLTNAEIGRRLHITERSAESHLERVRIRLGFRSRAQVAAWFVTQE	-3.56
HMAATHYEGIKQDGETDDAVIERVLTGLSVTANKDDIFIVKTLIAGTKYSYTAYVYNGNAWAAM	-1.38
HMAATSTGFPGVEVRGNSIRVFFMYKRDRHAHTLPLEPTRNNIKHADQLRSAALFALRNGTYNEADFFPHS	-1.6
HMAATVKVPDLTKMTPDEAQRALGQVGLKGKQGDDVDDDSVPVGYIAKQDEAPNSDAKAGDTITYHL	0.15

Sequence	soluble fraction (log2)
HMAAVSSHAVKQRIRSLIQAEDPASPLSDEALRLALSALGVEVSRRAVAKYRTSMDIPASSQRKK	-0.656
HMADEDTILALAKEILASWPDKVEAYKNGNKGMLGLFMGELMKKSGGKANPKSASALIQKLLE	-0.13
HMADEIQLVVQVNGKLRGRIMVAPDASREEIEKTALADADVSRFLGDTPVKKVIIVPKRLVNIVAPAPK	-1.08
HMADENIELRKAGLKVTLPRVKILQILEAAKEPHMSAEDVYKALMEANEEVGLATVYRVLTQFESAGL	-0.245
HMADGKWTLTDAGYTFTYSDGRKARGTWEDIDGEWYHFDRNGIMETGWKTVGNIRYHFNQDGSL	-1.52
HMADIGRMKELIDILNRASAVYYQGKDEIMSNFEYDKLYDELVSLEKESGLVLAGSPTQKVGY	-0.179
HMADKHVAAALLKLMDHLVGGRQYAFMKGRLTINKKVVLEATEVSAYRRGTGLSDADWQQRYE	-2.06
HMADLKRLNEQIHYLGQYLSTKATYKEFLQANNKKIYRSEHQDEIAKYEEAAQFLKRSSPDGTIPTMKDLR	-0.27
HMADLSAYAGKEGMTDSVLRPSGKVDIEGHILDAVSRGDFIEKGKRVIVIKAEGSYLVVKKRMP	-1.84
HMADLTEEQKTLFRLIRDLQPVSSKTLLENSGFTRSTQTRLLNGLIEKQIVIRTGNGPATRYSLR	-1.26
HMADLTIDGVEYTKVSPTGTLTLEKVYTKNVTPADGQYYIQTGTKTVRVATDAEVAVIKAGGF	0.153
HMADNKDMQAAFMEALNGLKEYAKVNGNIVTKEDVNSYFKDMHLDDNKYSMITGYLMANGITIKG	0.179
HMADPRFHSEIMLSKIESLLSGKADSDVSNYSIQGRSLTKMSLQELMDARESYDGLVKSEKAKLDAKY	0.0156
HMADPVTPQDLIRWSEALAGIARTGLGFTQSLYEQERFEEVLAVAADMRVAAGSSYNPDDLVHEWMKSVG	-0.565
HMADQVVGQLGMVTQRIDNLQQTGRVSANGLDWAARSENGQPIPQGMPVEVLRIEGVKLIVRPVN	-0.114
